Data: IntAct's records for PubMed 7538908

B1: Tumor necrosis factor receptor superfamily member 6 (Homo sapiens), P25445 (parent)
chain: MLGIWTLLPLVLTSVARLSSKSVNAQVTDINSKGLELRKTVTTVETQNLEGLHHDGQFCHKPCPPGERKARDCTVNGDEPDCVPCQEGKEYTDKAHFSSKCRRCRLCDEGHGLEVEINCTRTQNTKCRCKPNFFCNSTVCEHCDPCTKCEHGIIKECTLTSNTKCKEEGSRSNLGWLCLLLLPIPLIVWVKRKEVQKTCRKHRKENQGSHESPTLNPETVAINLSDVDLSKYITTIAGVMTLSQVKGFVRKNGVNEAKIDEIKNDNVQDTAEQKVQLLRNWHQLHGKKEAYDTLIKDLKKANLCTLAEKIQTIILKDITSDSENSNFRNEIQSLV

Variants of: B1
Details: with ripk1_human RIPK1, Q13546
Sequence of ripk1_human RIPK1, Q13546 (Q13546 whole entry): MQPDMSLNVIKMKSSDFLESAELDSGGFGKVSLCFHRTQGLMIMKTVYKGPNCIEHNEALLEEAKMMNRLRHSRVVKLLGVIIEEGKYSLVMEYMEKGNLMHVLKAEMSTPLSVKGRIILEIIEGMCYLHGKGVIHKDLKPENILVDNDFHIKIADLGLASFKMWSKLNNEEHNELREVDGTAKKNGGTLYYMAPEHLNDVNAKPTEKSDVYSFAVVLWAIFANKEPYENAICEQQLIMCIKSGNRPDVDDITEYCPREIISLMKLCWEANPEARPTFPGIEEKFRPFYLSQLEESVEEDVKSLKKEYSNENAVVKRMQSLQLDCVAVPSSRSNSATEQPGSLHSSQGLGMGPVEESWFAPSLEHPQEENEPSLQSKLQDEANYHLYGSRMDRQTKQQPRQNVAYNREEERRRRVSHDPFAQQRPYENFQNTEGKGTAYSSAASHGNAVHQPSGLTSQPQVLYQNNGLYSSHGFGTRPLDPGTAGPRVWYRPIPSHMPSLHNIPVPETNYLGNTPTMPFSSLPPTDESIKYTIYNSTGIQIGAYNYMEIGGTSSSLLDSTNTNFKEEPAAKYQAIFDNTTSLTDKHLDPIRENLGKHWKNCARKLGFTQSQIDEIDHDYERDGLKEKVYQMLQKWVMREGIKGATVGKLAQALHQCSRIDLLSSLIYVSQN

Variant | effect of a mutation on the interaction
MLGIWTLLPLVLTSVARLSSKSVNAQVTDINSKGLELRKTVTTVETQNLEGLHHDGQFCHKPCPPGERKARDCTVNGDEPDCVPCQEGKEYTDKAHFSSKCRRCRLCDEGHGLEVEINCTRTQNTKCRCKPNFFCNSTVCEHCDPCTKCEHGIIKECTLTSNTKCKEEGSRSNLGWLCLLLLPIPLIVWVKRKEVQKTCRKHRKENQGSHESPTLNPETVAINLSDVDLSKYITTIAGVMTLSQVKGFVRKNGNNEAKIDEIKNDNVQDTAEQKVQLLRNWHQLHGKKEAYDTLIKDLKKANLCTLAEKIQTIILKDITSDSENSNFRNEIQSLV [V254N] | decreasing interaction
